Data from paper doi:10.1101/2025.08.31.673313 (bioRxiv, 2025).

Molecular target: wild-type KRAS peptide on HLA-C*08:02, on peptide-pulsed cells (Homo sapiens, HLA-C*08:02)
Experiment: flow cytometry on cells

B1: C8K10D5-1 Fab (Fab, V domains shown)
VH: EVQLVESGGGLVQPGRSLRLSCAASGFTFDQYAMHWVRQAPGKGLEWVSGISAYSLSIGYADSVKGRFTISRDNAKNSLYLQMNSLRAEDTAVYYCARGRSEGVYMDGMDIWGSGTLVTVSS
VL: SYVLTQPPSVSVAPGQTARITCGGNNIKYRDVHWYQQKPGQAPVLVVYQDTLRPQGIPERFSGSNSGNMATLTISRVEAGDEADYYCQVWDWDTDHWVFGGGTDLTVL
B1: no binding (tested: 50 nM Fab).
